Legend:
[1] = biological target: T1, recombinant soluble MD-2 purified from baculovirus-infected insect cell supernatants (UniProt Q9Y6Y9 19-160); assay: direct ELISA, MD-2 coated at 5 ug/ml
T1 construct: Expressed in Sf9 cells, purified on NiNTA, coated at 5 ug/ml in the direct ELISA; not shown: C-terminal FLAG and 6xHIS tags
T1 sequence (looked up): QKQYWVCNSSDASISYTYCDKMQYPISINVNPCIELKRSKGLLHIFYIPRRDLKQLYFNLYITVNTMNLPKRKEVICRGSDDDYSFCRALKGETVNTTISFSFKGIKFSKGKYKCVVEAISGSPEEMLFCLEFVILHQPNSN
Protocol: Recombinant soluble MD-2 with C terminal FLAG and histidine epitope tags was coated at a concentration of 5 μg/ml in 50 μl PBS on ELISA plates (Nunc Maxisorp). Wells were blocked with 200 μl PBS 2% BSA and subsequently incubated with the appropriate MAb at the indicated concentration in PBS 1% BSA. Following 3 wash steps with PBS 0.05% Tween 20, 50 μl HRP conjugated goat anti-mouse IgG (H+L) at a 1:5000 dilution was added to the wells. […] Plates were read at a wavelength of 650 nm.
Using direct ELISA, no binding of 18H10 to recombinant soluble MD-2 generated with the baculovirus expression system was detected (FIG. 5a).

[2] = biological target: T2, human TLR4 and human MD-2 on transiently transfected HEK 293 cells (human, UniProt O00206 24-839; Q9Y6Y9 19-160); assay: FACS on transiently transfected HEK 293 cells
T2 construct: whole, on cells; also called human TLR4/MD-2 complex
T2 sequence (O00206 24-839, one chain of several): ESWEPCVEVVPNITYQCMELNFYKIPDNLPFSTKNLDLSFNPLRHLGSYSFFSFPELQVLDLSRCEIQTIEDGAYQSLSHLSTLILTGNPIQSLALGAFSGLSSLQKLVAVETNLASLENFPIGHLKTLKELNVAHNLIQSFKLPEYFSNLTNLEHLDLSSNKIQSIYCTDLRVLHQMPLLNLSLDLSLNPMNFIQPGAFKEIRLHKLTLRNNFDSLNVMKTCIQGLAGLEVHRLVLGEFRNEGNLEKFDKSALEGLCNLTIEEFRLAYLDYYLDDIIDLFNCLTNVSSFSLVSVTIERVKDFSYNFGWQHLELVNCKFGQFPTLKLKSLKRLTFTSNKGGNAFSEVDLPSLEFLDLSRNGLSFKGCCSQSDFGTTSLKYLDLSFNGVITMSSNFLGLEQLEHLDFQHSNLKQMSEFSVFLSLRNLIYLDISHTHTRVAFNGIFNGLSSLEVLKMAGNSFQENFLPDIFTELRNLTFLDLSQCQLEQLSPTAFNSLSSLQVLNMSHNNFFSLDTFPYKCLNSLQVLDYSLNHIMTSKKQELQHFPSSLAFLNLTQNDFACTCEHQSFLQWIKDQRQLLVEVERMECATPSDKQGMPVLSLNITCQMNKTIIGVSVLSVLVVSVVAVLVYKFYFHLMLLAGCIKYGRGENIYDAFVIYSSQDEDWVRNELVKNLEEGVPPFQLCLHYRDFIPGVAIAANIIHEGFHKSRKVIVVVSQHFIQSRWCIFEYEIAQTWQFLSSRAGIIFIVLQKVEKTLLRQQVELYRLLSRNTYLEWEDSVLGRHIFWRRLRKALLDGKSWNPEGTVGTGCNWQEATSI
Protocol: FIGS. 4A-4L are a series of graphs depicting the specificity of the 18H10 monoclonal antibody for MD-2. The specificity of the 18H10 antibody is shown by flow cytometry analysis of HEK 293 cells transiently transfected with either human TLR4 and human MD-2 (FIG. 4A, FIG. 4E and FIG. 4I); rabbit TLR4 and rabbit MD-2 (FIG. 4B, FIG. 4F and FIG. 4J); human TLR4 and rabbit MD-2 (FIG. 4C, FIG. 4G and FIG. 4K); or rabbit TLR4 and human MD-2 (FIG. 4D, FIG. 4H and FIG. 4L). Cells were incubated with either α-FLAG™ antibody (to detect TLR4 expression); α-C-myc antibody (to detect MD-2 expression) or the 18H10 monoclonal antibody, followed by an APC-coupled α-mouse (H+L) antibody.
FIGS. 12A-12L is a series of graphs depicting the specificity of the 16G7 monoclonal antibody for TLR4. […]
HEK 293 cells were plated in 6 well plates at a density of 2.5×10⁵ cells/well in 2 ml culture medium containing 10% FBS. […] 48 hours post-transfection, cells were stained with the appropriate monoclonal antibody (as indicated in FIGS. 4A-4L) and an APC-coupled goat anti-mouse IgG (H+L) antibody (Molecular Probes) and analyzed using the FACScalibur in the FL-4 channel.

[3] = biological target: T3, human TLR4/MD-2 complex on the surface of transfected CHO cells (human, UniProt O00206 24-839; Q9Y6Y9 19-160); assay: flow cytometry, mock transfected vs. TLR4/MD-2 transfected cells
T3 construct: whole, on cells; also called TLR4/MD-2 transfected CHO cells; hTLR4/MD-2 transfected CHO cells
T3 sequence (O00206 24-839, one chain of several): as above

[4] = biological target: T4, human TLR4/MD-2 complex in transfected HEK 293 cells (FLAG-TLR4 with MD-2-FLAG-6xHis) (human, UniProt O00206 24-839; Q9Y6Y9 19-160); assay: sandwich ELISA, capture on anti-FLAG M2, biotinylated 18H10 with streptavidin-HRP
T4 construct: whole, on cells; also called TLR4/MD-2 transfected HEK 293 cells; hTLR4/MD-2 transfected HEK 293 cells
T4 sequence (O00206 24-839, one chain of several): as above
Protocol: (§1) For sample preparation, HEK 293 cells were transfected with the appropriate plasmid constructs using the Fugene 6™ transfection reagent as described in paragraph G above. 48 hours post-transfection, cells were collected and cleared by centrifugation. Cells were subsequently incubated with biotinylated 18H10 (10 μg/ml) and lysed in 20 mM Tris pH 7.4, 150 mM NaCl, 1% NP40 containing COMPLETE™ protease inhibitors (Roche).
(§2) To perform the sandwich ELISA, Nunc maxisorp plate wells were coated with 50 μl of the anti-FLAG™ M2 MAb (Sigma) at a concentration of 5 μg/ml in PBS. Wells were blocked with 200 μl PBS 2% BSA and subsequently incubated with 50 μl of the appropriate samples at the indicated dilution. Wells were washed three times with 200 μl PBS 0.05% Tween 20 and incubated with 50 μl of the appropriate antibody (10 μg/ml for biotinylated 18H10 and 12D4, 1 μg/ml for the polyclonal anti-MD-2 […]). Following a wash step as above, wells were incubated with 50 μl of the appropriate detection antibody (HRP conjugated streptavidin at a dilution of 1:1500 for the biotinylated MAbs and HRP conjugated anti-rabbit IgG (H+L) at a dilution of 1:5000 for the polyclonal rabbit Ab). […] Plates were read at a wavelength of 650 nm.

[5] = biological target: T5, MD-2 alone in transfected HEK 293 cell lysates/supernatants (UniProt Q9Y6Y9 19-160, limits assumed); assay: sandwich ELISA, capture on anti-FLAG M2, biotinylated 18H10
T5 construct: not shown: C-terminal FLAG and 6x Histidine tags
T5 sequence (looked up): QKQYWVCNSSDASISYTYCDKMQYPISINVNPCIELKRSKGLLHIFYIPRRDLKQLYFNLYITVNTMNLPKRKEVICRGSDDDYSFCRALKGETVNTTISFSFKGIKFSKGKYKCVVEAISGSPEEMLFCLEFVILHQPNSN
Protocol: as §1, §2

[6] = biological target: T6, human TLR4 alone in transfected HEK 293 cells (human, UniProt O00206 24-839); assay: as above
T6 construct: whole, on cells; also called TLR4 alone in transfected cell lysates
T6 sequence (O00206 24-839): as the sequence (O00206 24-839, one chain of several) above
Protocol: as §1, §2

- binding result [1]: no binding
- binding result [2]: binds
- binding result [3]: binds
- binding result [4]: binds
B1: 18H10 monoclonal antibody (antibody, IgG2b, V domains shown)
VH: QVQLQQSGADLVRPGALVKLSCTASGFNIKDSYIHWVKKRPEWGLEWIGWTDPENVNSIYDPRFQGKASITADTSSNTAFLQLTSLTSEDTAVYYCARGYNGVYYAMDYWGQGTTVTVSS
VL: QIVLTQSPSIMSASLGEEITLTCSASSSVIYMHWYQQKSGTSPKLLIYRTYNLASGVPSRFSGSGSGTFYSLTISSVEAEDAADYYCHQWSSFPYTFGGGTKLEIKR
notes: also called 18H10 MAb; 18H10 mouse MAb
- binding result [5]: no binding (tested: 10 µg/ml biotinylated 18H10)
- binding result [6]: no binding (tested: 10 µg/ml biotinylated 18H10)
